Test results: patent US20210024625A1 (published 2021)

T1: PfRH5 from Plasmodium falciparum strain 3D7 (Plasmodium falciparum, UniProt Q8IFM5 25-526)
T1 sequence: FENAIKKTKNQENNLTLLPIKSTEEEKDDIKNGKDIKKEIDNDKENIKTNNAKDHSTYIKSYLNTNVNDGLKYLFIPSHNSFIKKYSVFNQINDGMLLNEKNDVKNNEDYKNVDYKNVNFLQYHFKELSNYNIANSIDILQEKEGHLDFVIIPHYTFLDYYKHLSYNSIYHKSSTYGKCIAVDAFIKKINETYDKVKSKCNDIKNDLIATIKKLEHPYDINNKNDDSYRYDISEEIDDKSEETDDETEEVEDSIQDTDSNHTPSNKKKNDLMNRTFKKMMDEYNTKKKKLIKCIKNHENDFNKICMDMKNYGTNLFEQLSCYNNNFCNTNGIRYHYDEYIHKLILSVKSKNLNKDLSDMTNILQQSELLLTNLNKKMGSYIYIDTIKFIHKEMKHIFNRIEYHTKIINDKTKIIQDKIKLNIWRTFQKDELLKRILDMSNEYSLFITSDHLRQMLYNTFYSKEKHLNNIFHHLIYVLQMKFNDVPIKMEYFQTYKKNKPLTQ

B1: H1H29094P (antibody, V domains shown)
VH: not shown
VL: DIQMTQSPSSLSASVGDRVTITCQASQDINRDLNWYQQKSGKGPKLLIYDASNLETGVPSRFSGNRFGTDFTFTISRLQPEDIATYFCQQYKNLPYTFGQGTKLEIKR
B2: H1H29127P (antibody, V domains shown)
VH: QVQLVESGGGVVQPGRSLRLSCAASGFTFSSYGMHWVRQAPGKGLEWVAAIWYDGSNKYYADSVKGRFTISRDNSKNTLYLQMNSLRAEDTAVYFCARGEHYYGSGPFDPWGQGTLVTVSS
VL: DIQMTQSPSSLSASVGDRVTITCRASQSISNYLNWYQQKPGKAPKLLIFAASSLQSGVPSRFSGSGSGTDFTLTISSLQPEDFATYYCQQSYSSPLTFGGGTKVEIKR
B3: H1H29183P2 (antibody, V domains shown)
VH: QVQLVQSGPEVKKPGASVKVSCKASGYTFTSYGISWVRQAPGQGLEWLGWISGFNGRTDYTEKLQDRITMTTDRSSSTAYMELRSLRYDDTAVYYCARDGLEKLGDYWGQGTLVTVSS
VL: not shown
B4: H1H29104P (antibody, V domains shown)
VH: EVQLVESGGGLVQPGRSLRLSCAASGFRFDDYAMHWVRQAPGKGLEWVSGINWNSGGKGYADSVQGRFTISRDNAKNSLYLQMNSLRTEDTALYYCAKDRGIAARLLSRDAFDMWGQGTMVTVSS
VL: DIQLTQSPSFLSASVGDRVTITCWASQDVSSYLAWYQQKPGKSPKLLIFAASTLQGGIPSRFSGSGSGTEFTLTISSLRPEDFATYYCQHLNTYPYTFGQGTKLEIKR
B5: H1H29109P (antibody, V domains shown)
VH: EVQLVESGGGLVQPGRSLRLSCAVSGFTFDDYAMHWVRQAPGKGLEWVSGISWNSGDIDYADSVKGRFTISRDNAKNSLYLQMNSLRAEDTALYYCAKDTLSGTGTTWYYFDYWGQGTLVTVSS
VL: DIQLTQSPSFLSASVGDRVTITCWASQGISSYLIWYQQKPGKAPKLLIYAASTLQSGVPSRFSGSGSGTEFTLTISSLQPEDFATYYCQQVNSYPLTFGGGTKVEIKR
B6: H1H29187P2 (antibody, V domains shown)
VH: QVQLVESGGGVVQPGRFLRLSCAASGFTFSNSGMHWVRQAPGKGLEWVAGIWHDGSYKYYVDSVKGRFTISRDNSKNTLFLQMNSLRAEDTAVYYCARDDYYASGTSVDVWGQGTTVTVSS
VL: not shown
B7: H1H29143P (antibody, V domains shown)
VH: EVQLVESGGGLVQPGGSLRLSCAASGFTFNNYAMSWVRQAPGRGLEWVSAISGSGDSTYYSDSVKGRFTISRDNSKNTLYLQMNSLRAEDTAVYYCAKDQGLYYYGSGSFDYWGQGTLVTVSS
VL: not shown
B8: H1H29147P2 (antibody, V domains shown)
VH: QVQLVQSGAEVKNPGSSVKVSCKASGGTFSSYTINWVRQAPGQGLEWMGGIIPLYGTANYAQKFQARVTISTDESTNTAYMELSNLRFEDTAVYFCASTLELRAFDAFDIWGQGTMVTVSS
VL: not shown
B9: H1H29171P2 (antibody, V domains shown)
VH: QVQLVESGGGVVQPGRSLRLSCAASGFTFSSYGMHWVRQAPGKGLEWVAVISYDGSNKYYADSVKGRFTISRDNSKNTLYLQMNSLRAEDTAVYYCAKDDWNYDAFDIWGQGTMVTVSS
VL: not shown
B10: H1H29179P2 (antibody, V domains shown)
VH: QVQLQESGPGLVKPSQTLSLTCTVSGGSISSSGYYWSWIRQHPGRGLEWIGYIYYSGSTYYNPSLKSRVTISVDTSKNQFSLKLNSVTAADTAVYYCARVDYGSGSSFDYWGQGTLVTVSS
VL: not shown
B11: H1H29106P (antibody, V domains shown)
VH: QVQLVESGGGVVQSGRSLRLSCAASSFTFSSYGMHWVRQSPGKGLEWVAVISYDGSNKYYGDFVRGRFTISRDNSKNTLYLQMNSLRAEDTAMYYCAREVRRYYYYGMDVWGQGTTVTVSS
VL: not shown

Tests used:
Experiment in all cases: cell-based or functional assay
[1] = molecular target: T2, PfRH5 from Plasmodium falciparum strain FCR-1/FVO (Plasmodium falciparum)
[2] = molecular target: PfRH5 from Plasmodium falciparum strain D10 (Plasmodium falciparum)
[3] = molecular target: T3, PfRH5 from Plasmodium falciparum strain Dd2 (Plasmodium falciparum)
[4] = molecular target: PfRH5 from Plasmodium falciparum strain HB3 (Plasmodium falciparum)
[5] = molecular target: PfRH5 from Plasmodium falciparum strain W2-mef (Plasmodium falciparum)
[6] = molecular target: T4, PfRH5 from Plasmodium falciparum strain 7G8 (Plasmodium falciparum)
[7] = molecular target: T1, PfRH5 from Plasmodium falciparum strain …
[8] = molecular target: PfRH5 from Plasmodium falciparum strain Cam3.II (Plasmodium falciparum)
[9] = molecular target: PfRH5 from Plasmodium falciparum strain RF7 (Plasmodium falciparum)
[10] = molecular target: T3, PfRH5 from Plasmodium falciparum strain …; remark: listed apart in the source
[11] = molecular target: T4, PfRH5 from Plasmodium falciparum strain …; remark: listed apart in the source
[12] = molecular target: T1, PfRH5 from Plasmodium falciparum strain …; remark: listed apart in the source
[13] = molecular target: T2, PfRH5 from Plasmodium falciparum strain …; remark: listed apart in the source

Binder	Max growth inhibition (%) [1]	Max growth inhibition (%) [2]	Max growth inhibition (%) [3]	Max growth inhibition (%) [4]	Max growth inhibition (%) [5]	Max growth inhibition (%) [6]	Max growth inhibition (%) [7]	Max growth inhibition (%) [8]	Max growth inhibition (%) [9]	Maximum growth inhibition (%) [10]	Max growth inhibition (%), Chloroquine Phosphate N/A [11]	Max growth inhibition (%), Chloroquine Phosphate N/A [12]	Percent Maximum Growth Inhibition, mAb (6.67 µM) + AHIS (10%) [13]	Percent Maximum Growth Inhibition, mAb (6.67 µM) + ANS (10%) [13]	Percent Maximum Growth Inhibition, mAb (6.67 µM) + HHIS (10%) [13]	Percent Maximum Growth Inhibition, mAb (6.67 µM) + HNS (10%) [13]	Percent Maximum Growth Inhibition, mAb (6.67 µM) + No serum [13]
B1	51.2%	35.9%	41.6%	45.4%	34.9%	29.9%	14.4%	26.2%	15.2%								
B2	61.1%	74.4%	64.7%	59.4%	53.6%	61.2%	63.9%	47%	25.7%	56.9%							
B3	16.1%	6.79%	0.68%	4.92%	-0.55%	17.8%	5.68%	8.66%	-6.27%								
B4	67.4%	55.7%	61.3%	39.8%	47.4%	35.2%	34.4%	50%	23.6%	54.1%							
B5	56.7%	44.8%	42%	32.2%	37.9%	39%	32.2%	35.9%	8.24%								
B6	72.2%	79.6%	66%	63.9%	67.3%		70.7%	49.2%	32.7%		49.3%	47.6%	89.4%	80.1%	85.4%	85.9%	85.3%
B7	67.2%	79.4%	62.7%	60.9%	58.3%	61.9%	60.3%	53.2%		56%							
B8	70.3%	81.4%	65.3%	64.8%	64.7%	65.2%	60.3%	51.9%	31.4%		47.3%	34.9%	86.2%	80.3%	83.4%	85.6%	84.1%
B9	11.7%	10.6%	7.71%	0.52%	0.74%	17%	4.04%	5.45%	-12.5%								
B10	49%	62.5%	13.5%	40.9%	22.9%	34.1%	24.2%	33.4%	-2.99%								
B11	54.3%	74.9%	54%	48.4%	48.9%	55.5%	58%	51.7%	27.4%								
